According to patent US8445431:
No end group written: not given here.

Experiments:
[1] = target: recombinant isoform of human Angiotensin Converting Enzyme (rhACE) corresponding to the ectodomain somatic ACE (human), P12821; assay: cell-based or functional assay
[2] = target: recombinant isoform of human Angiotensin Converting Enzyme (rhACE) corresponding to the ectodomain somatic ACE (human) (UniProt P12821); assay: Enzyme inhibition of rhACE with fluorogenic substrate, Dixon plot and KI=IC50/(1+[S]/Km); 45 min pre-incubation, hydrolytic conditions
[3] = target: recombinant isoform of human Angiotensin Converting Enzyme (rhACE) corresponding to the ectodomain somatic ACE (human) (UniProt P12821); assay: cell-based or functional assay

recombinant isoform of human Angiotensin Converting Enzyme (rhACE) corresponding to the ectodomain somatic ACE (human), P12821, sequence (P12821 30-1256): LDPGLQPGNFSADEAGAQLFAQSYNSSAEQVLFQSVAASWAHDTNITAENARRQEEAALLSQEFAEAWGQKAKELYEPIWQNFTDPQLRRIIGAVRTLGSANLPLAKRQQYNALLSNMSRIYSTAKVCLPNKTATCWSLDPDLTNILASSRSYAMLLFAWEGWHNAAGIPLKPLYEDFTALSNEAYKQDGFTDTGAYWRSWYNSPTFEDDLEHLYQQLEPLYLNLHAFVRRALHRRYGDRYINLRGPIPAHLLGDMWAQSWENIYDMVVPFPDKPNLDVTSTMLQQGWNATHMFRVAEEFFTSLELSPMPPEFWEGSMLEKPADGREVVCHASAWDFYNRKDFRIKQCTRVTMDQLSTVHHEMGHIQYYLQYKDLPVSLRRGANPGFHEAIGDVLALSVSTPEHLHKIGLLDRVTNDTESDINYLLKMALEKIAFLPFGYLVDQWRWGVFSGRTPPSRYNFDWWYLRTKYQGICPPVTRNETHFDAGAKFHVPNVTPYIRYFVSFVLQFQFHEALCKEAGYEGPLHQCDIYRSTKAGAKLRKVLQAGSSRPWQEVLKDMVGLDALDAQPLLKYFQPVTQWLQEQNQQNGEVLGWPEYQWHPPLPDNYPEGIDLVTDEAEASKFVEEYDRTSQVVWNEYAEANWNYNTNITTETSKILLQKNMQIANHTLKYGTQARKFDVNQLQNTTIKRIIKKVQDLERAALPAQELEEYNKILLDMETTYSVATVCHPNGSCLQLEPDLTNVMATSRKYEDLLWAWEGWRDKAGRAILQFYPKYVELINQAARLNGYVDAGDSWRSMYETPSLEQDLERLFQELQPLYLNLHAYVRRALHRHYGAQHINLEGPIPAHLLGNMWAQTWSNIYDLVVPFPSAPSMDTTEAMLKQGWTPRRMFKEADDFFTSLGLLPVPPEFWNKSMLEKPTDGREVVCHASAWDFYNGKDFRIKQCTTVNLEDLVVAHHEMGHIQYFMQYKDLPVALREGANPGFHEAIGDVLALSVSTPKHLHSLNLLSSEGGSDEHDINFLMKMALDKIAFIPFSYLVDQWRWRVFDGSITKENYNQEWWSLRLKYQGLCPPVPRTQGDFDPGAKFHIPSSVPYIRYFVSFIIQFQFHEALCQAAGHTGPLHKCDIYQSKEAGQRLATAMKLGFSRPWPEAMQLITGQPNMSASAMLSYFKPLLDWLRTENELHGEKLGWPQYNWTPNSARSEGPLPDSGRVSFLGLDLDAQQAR
recombinant isoform of human Angiotensin Converting Enzyme (rhACE) corresponding to the ectodomain somatic ACE (human), sequence (P12821 30-1256): as above

Binder | IC50 of rhACE inhibition (fluorogenic substrate cleavage) [1] [µM] | Ki [2] [µM] | IC50 of rhACE inhibition (fluorogenic substrate cleavage) [3] [µM]
GGH [GlyGlyHis (GGH) peptide, metal-free] | > 100 | – | –
KGHK [LysGlyHisLys (KGHK) peptide, metal-free] | > 100 | – | –
YIHPF [TyrIleHisProPhe (YIHPF, Angiotensin II 4-8) peptide, metal-free] | > 100 | – | –
Gly-Gly-His (also: Cu(II) complex bound by ATCUN motif) [[GGH-Cu]- copper(II) complex of GGH] | > 100 | – | –
YIHPF (also: Cu(II) complex bound by ATCUN motif) [[YIHPF-Cu]- copper(II) complex of YIHPF] | > 100 | – | –
KGHK (also: Cu(II) complex bound by ATCUN motif (free N-term, two peptide N, His3)) [[KGHK-Cu]+ copper(II) complex of KGHK] | – | 4 | 11
